Experimental data from patent publication US20060216303A1 (published 2006).

Key:
[1] = target: T1, synthetic polypeptide 20-mer APPAHGVTSAPDTRPAPGST of the breast mucin tandem repeat; experiment: binding to synthetic 20-mer
T1 construct: also called synthetic peptide started in the middle of the repeat
T1 peptide: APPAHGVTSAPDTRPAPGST

[2] = target: T2, synthetic polypeptide 20-mer … of the breast mucin tandem repeat; experiment: binding to synthetic 20-mer
T2 construct: also called synthetic peptide started at the beginning of the 20 amino acid repeat
T2 sequence (peptide, as listed by the source): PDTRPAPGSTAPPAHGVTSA

- binding result [1]: binds
- binding result [2]: binds
B1: murine BrE-3 monoclonal antibody (antibody, V domains shown)
VH: EVKLEESGGGLVQPGGSMKLSCAASGFTFSDAWMDWVRQSPEKGLEWVAEIRNKANNHATYYDESVKGRFTISRDDSKSRVYLQMISLRAEDTGLYYCTGEFANWGQGTLVTVSA
VL: DVVMTQTPLSLPVSLGDQASISCRSSQNLVHNNGNTYLYWFLQKSGQSPKLLIYRASIRFSGVPDRFSGSGSETDFTLKISRVEAEDLGVYFCFQGTHVPWTFGGGTKLEIK
notes: Whole murine antibody; The entries are printed with a 19-residue leader; also called anti-BrE-3 murine antibody; murine BrE-3 antibody
